Residue numbers refer to the chain shown, from its start.
B1: GITR.6.G2.G1f (antibody, human IgG2)
heavy: not shown
VL: AIQLTQSPSSLSASVGDRVTITCRASQGISSALAWYQQKPGKAPKLLIYDASSLESGVPSRFSGSGSGTDFTLTISSLQPEDFATYYCQQFNSYPYTFGQGTKLEIK
B2: recombinant human GITR ligand trimer (R&D Systems 6987-GL) (ligand)
chain: LQLETAKEPCMAKFGPLPSKWQMASSEPPCVNKVSDWKLEILQNGLYLIYGQVAPNANYNDVAPFEVRLYKNKDMIQTLTNKSKIQNVGGTYELHVGDTIDLIFNSEHQVLKNNTYWGIILLANPQFIS
notes: Bought soluble trimer, detected through an HA tag; also called rhGITR-L; hGITR-L trimer
B3: 28F3 (antibody, human IgG2, kappa)
heavy: QVQLVESGGGVVQPGRSLRLSCAASGFTFSSYGMHWVRQAPGKGLEWVAVIWYEGSNKYYADSVKGRFTISRDNSKNTLYLQMNSLRAEDTAVYYCARGGSMVRGDYYYGMDVWGQGTTVTVSSASTKGPSVFPLAPCSRSTSESTAALGCLVKDYFPEPVTVSWNSGALTSGVHTFPAVLQSSGLYSLSSVVTVPSSNFGTQTYTCNVDHKPSNTKVDKTVERKCCVECPPCPAPPVAGPSVFLFPPKPKDTLMISRTPEVTCVVVDVSHEDPEVQFNWYVDGVEVHNAKTKPREEQFNSTFRVVSVLTVVHQDWLNGKEYKCKVSNKGLPAPIEKTISKTKGQPREPQVYTLPPSREEMTKNQVSLTCLVKGFYPSDIAVEWESNGQPENNYKTTPPMLDSDGSFFLYSKLTVDKSRWQQGNVFSCSVMHEALHNHYTQKSLSLSPGK
light: not shown
notes: also called 13H2; 28F3 (IgG2)
B4: 6G10 (antibody, human IgG2, kappa, V domains shown)
VH: not shown
VL: AIQLTQSPSSLSASVGDRVTITCRASQGISSALAWYQQKPGKAPKLLIYDASSLESGVPSRFSGSGSGTDFTLTISSLQPEDFATYYCQQFNSYPYTFGQGTKLEIKR
notes: Hybridoma-derived human antibody
B5: 8A6 (antibody, human IgG2, kappa, V domains shown)
VH: QVQLVESGGGVVQPGRSLRLSCTASGFTFSSYGMQWVRQAPGKGLEWVAVIWYEGSNKYYADSVKGRFTISRENSKNTLYLQMNSLRAEDTAVYYCARGGLMVRGLFYYGMDVWGQGTTVTVSS
VL: B4 VL with L46F
notes: as for B4
B6: 3C3 (antibody, human IgG1, kappa, V domains shown)
VH: QVQLQQWGAGLLKPSETLSLTCAVYGGSFSGYYWTWIRQPPGKGLEWIGKINHSGNTNYNPSLKSRVTISVDTSKNQFSLKLSSVTAADTAVYYCARLGAFDAFDIWGQGTMVTVSS
VL: B4 VL with A1D, L4M, A32W, G41E, L46S, D50A, E55Q, F91Y
notes: Hybridoma-derived; also called GITR.3; 3C3-1
B7: 18E10 (antibody, human IgG2, kappa, V domains shown)
VH: QVQLVESGGGVVQPGRSLRLSCAASGFTFSSYGMHWVRQAPGKGLEWVAVIWYAGSNKYYADSVKGRFTISRDNSKNTLYLQMNSLRAEDTAVYYCARGGRIAVAFYYSMDVWGQGTTVTVSS
VL: B4 VL with A1D, L4M, A32W, G41E, L46S, D50A, E55Q, F91Y
notes: as for B4
B8: 2G6 (antibody, human IgG2, kappa, V domains shown)
VH: QVQLVESGGGVVQPGGSLRLSCAASGFILSDYGMHWVRQAPGKGLEWVTVIWYDGSNKFYVDSVKGRFTISRDNSKNTLYLQMNSLRVEDTAVYYCARGGRLATGHFYYVMDVWGQGTTVTVSS
VL: B4 VL with A1D, L4M, A32W, G41E, L46S, D50A, E55Q, F91Y
notes: as for B4
B9: 14E3 (antibody, V domains shown)
VH: B6 VH with T35S, K50E, N58Y, F78L, L98F, A100S, F101N
VL: B4 VL with A1D, L4M, A32W, G41E, L46S, D50A, E55Q, F91Y, Y96P, L104V
notes: as for B4
B10: 19D3 (antibody, human IgG2, kappa, V domains shown)
VH: B7 VH with M34F, Y59F, R101Q, I102L, A103D, V104Y, A105Y, F106Y, S109V
VL: B4 VL with A1D, L4M, A32W, G41E, L46S, D50A, E55Q, F91Y
notes: as for B4

Key:
[1] = biological target: T1, human GITR, membrane bound (on activated human T cells or on 3A9-hGITR cells) (human, UniProt Q9Y5U5 26-241); assay: cell-based or functional assay
T1 sequence: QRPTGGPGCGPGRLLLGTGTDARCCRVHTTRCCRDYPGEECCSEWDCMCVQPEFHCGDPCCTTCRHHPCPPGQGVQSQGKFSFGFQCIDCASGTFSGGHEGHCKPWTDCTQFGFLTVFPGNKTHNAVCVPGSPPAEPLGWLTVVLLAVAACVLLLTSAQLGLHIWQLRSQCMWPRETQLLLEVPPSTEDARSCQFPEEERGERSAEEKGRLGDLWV

[2] = biological target: T1, human GITR, membrane bound (on …); assay: FACS on PHA-activated human CD4+ and CD8+ T cells, anti-HA detection
Text: (§1) The samples were acquired on a FACS Canto Flow Cytometer (BD, San Jose) and analyzed with FlowJo software (Tree Star, Inc, Ashland, Oreg.).

[3] = biological target: T1, human GITR, membrane bound (on …); assay: FACS; pre-bound GITR-L against 0.5 ug/mL 28F3-hIgG1 (competitor) on activated T cells; partial inhibition
Text: as §1

[4] = biological target: T1, human GITR, membrane bound (on …); assay: FACS on activated human T cells
Description: (§2) Peripheral Blood Mononuclear Cells (PBMCs) isolated from human or cynomolgus monkey were activated with plate-coated anti-CD3 antibody (Clone: UCHT1 for human T cell activation; Clone: SP34 for cynomolgus T cell activation; both from BD Biosciences) and soluble anti-CD28 antibody (Clone:CD28.2 for both human and cynomolgus monkey, BD Biosciences) for 4 days (human)/or 5 days (cynomolgus monkey). The cells were tested for GITR mAb binding in a fluorescence-activated cell sorting (FACS)-based assay using a phycoerythrin (PE)-conjugated anti-human IgG antibody (Jackson ImmunoResearch). The samples were analyzed on a BD FACS Canto Flow Cytometer.

[5] = biological target: T2, cynomolgus GITR, membrane bound (on activated cynomolgus T cells) (cynomolgus monkey, UniProt Q9Y5U5 26-241 (human entry)); assay: FACS on activated cynomolgus T cells
T2 construct: also called cyno GITR
T2 chain: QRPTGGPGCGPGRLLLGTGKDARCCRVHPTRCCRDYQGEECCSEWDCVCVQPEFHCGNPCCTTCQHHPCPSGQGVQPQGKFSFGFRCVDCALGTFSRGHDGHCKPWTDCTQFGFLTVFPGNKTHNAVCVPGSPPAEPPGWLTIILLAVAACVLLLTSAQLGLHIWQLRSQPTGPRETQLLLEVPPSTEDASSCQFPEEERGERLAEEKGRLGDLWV
Description: as §2

[6] = biological target: T3, recombinant human GITR/Fc (rHGITR/Fc, R&D systems CAT #689-GR) (human, UniProt Q9Y5U5 26-161, limits assumed); assay: SPR; mAb captured (anti-kappa), rHGITR/Fc analyte
T3 construct: Bought; also called soluble GITR
T3 chain: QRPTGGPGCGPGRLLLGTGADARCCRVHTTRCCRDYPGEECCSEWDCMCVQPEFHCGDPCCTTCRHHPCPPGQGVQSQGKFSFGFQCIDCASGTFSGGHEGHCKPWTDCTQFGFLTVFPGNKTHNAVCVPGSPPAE
Description: Binding of anti-GITR antibodies to soluble GITR was determined by Biacore. […] The capture concentration of the mAb/volume was 2-40 μg/mL (5 μL at 10 μL/min). The antigen association time was 5 minutes at 15 μL/min, the antigen dissociation time was 6 minutes, and regeneration was performed with 50 mM HCl/50 mM NaOH (12 μL each at 100 μL/min).

[7] = biological target: T4, mouse GITR (mouse, UniProt O35714 20-228); assay: stated in the Treg suppression assay with huGITR KI and wildtype mouse T cells
T4 construct: whole, on cells; also called muGITR
T4 sequence (looked up): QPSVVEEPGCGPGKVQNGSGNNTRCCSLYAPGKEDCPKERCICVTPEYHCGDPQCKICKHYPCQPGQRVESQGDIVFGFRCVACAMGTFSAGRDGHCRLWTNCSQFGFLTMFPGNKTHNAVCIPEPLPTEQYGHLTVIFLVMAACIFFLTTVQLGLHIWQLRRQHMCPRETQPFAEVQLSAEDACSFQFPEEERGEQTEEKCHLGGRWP
Text: From the previous experiment it was not clear whether the increased Teff proliferation was due to the anti-GITR antibodies acting on Treg and/or Teff cells. To address this question, human GITR “knock-in” (huGITR KI) mice were used. In these mice, the gene encoding mouse GITR, Tnfrsf18, was replaced with the human TNFRSF18 gene, and human GITR is expressed similarly to muGITR in wildtype mice; human GITR is expressed on both Teff and Treg cells with higher levels on the latter.
Treg and Teff cells were sorted based on CD4 and CD25 expression from huGITR KI and WT mice.

[8] = biological target: T3, recombinant human GITR/Fc (rHGITR/Fc, …); assay: SPR binning with rHGITR/Fc

Row | Binder | EC50 [4] | Kd [6] | koff [6] | kon [6] | also measured
1 | B1 | – | – | – | – | NFKB signaling (phospho-p65) EC50, CD4+ T cells [1]: 9 nM; NFKB signaling (phospho-p65) EC50, CD8+ T cells [1]: 3.77 nM; NFKB signaling (phospho-p65) Emax, CD4+ T cells [1]: 100%; NFKB signaling (phospho-p65) Emax, CD8+ T cells [1]: 92%
2 | B2 | – | – | – | – | EC50 [2]: 16 ng/mL; IC50 [3]: 2.4 ng/mL
3 | B3 | 0.192 nM | 14.8 nM | 0.00589 s⁻¹ | 397000 M⁻¹ s⁻¹ | NFKB signaling (phospho-p65) EC50, CD4+ T cells [1]: 12.8 nM; NFKB signaling (phospho-p65) EC50, CD8+ T cells [1]: 9 nM; NFKB signaling (phospho-p65) Emax, CD4+ T cells [1]: 69%; NFKB signaling (phospho-p65) Emax, CD8+ T cells [1]: 85%; EC50 [5]: 1.04 nM; binding result [7]: no binding
4 | B4 | – | 1.87 nM | 0.000715 s⁻¹ | 383000 M⁻¹ s⁻¹ | –
5 | B5 | – | – | – | – | binding result [8]: binds
6 | B6 | 0.0492 nM | – | – | – | binding result [5]: no binding
7 | B7 | 0.146 nM | 13.3 nM | 0.00241 s⁻¹ | 182000 M⁻¹ s⁻¹ | EC50 [5]: 0.913 nM
8 | B8 | – | 12 nM | 0.00147 s⁻¹ | 123000 M⁻¹ s⁻¹ | –
9 | B9 | – | – | – | – | binding result [8]: binds
10 | B10 | 0.363 nM | 16.3 nM | 0.0045 s⁻¹ | 276000 M⁻¹ s⁻¹ | –

Source: patent publication US20220175921A1 (Bristol-Myers Squibb, published 2022)
